# Measured values: publication PMC5384220, “Highly selective inhibition of histone demethylases by de novo macrocyclic peptides” (Nature Communications, 2017)
# T1: KDM4C (human, UniProt Q9H3R0 1-1056)
# T1 sequence (looked up): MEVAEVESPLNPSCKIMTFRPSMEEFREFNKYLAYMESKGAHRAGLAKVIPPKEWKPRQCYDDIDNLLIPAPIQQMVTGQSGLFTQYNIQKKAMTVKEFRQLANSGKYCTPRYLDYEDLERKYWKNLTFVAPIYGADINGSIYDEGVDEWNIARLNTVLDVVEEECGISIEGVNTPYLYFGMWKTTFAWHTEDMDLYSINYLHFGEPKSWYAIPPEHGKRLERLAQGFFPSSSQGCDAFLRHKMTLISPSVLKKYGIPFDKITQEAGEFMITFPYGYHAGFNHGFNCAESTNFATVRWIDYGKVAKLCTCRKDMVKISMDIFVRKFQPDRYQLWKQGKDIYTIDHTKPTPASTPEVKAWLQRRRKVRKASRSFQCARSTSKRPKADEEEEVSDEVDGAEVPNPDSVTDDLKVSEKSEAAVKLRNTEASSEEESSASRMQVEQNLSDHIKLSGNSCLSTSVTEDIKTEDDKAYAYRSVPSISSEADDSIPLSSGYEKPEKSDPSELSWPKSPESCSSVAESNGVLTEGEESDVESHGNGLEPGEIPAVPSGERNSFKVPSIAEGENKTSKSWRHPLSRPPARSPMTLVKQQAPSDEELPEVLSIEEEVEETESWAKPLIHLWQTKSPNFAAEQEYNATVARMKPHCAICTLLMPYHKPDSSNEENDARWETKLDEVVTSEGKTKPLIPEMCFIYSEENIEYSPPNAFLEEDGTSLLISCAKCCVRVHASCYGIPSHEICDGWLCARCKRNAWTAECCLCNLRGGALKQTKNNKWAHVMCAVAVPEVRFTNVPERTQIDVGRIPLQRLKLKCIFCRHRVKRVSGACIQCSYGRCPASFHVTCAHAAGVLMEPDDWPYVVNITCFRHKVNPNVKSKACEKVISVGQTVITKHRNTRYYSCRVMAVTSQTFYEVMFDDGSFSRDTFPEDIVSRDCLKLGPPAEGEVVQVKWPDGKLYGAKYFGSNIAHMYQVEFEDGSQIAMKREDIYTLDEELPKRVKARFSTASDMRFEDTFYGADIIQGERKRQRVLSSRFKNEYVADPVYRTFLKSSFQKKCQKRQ
# T2: KDM4B (human, UniProt O94953 1-1096)
# T2 sequence (looked up): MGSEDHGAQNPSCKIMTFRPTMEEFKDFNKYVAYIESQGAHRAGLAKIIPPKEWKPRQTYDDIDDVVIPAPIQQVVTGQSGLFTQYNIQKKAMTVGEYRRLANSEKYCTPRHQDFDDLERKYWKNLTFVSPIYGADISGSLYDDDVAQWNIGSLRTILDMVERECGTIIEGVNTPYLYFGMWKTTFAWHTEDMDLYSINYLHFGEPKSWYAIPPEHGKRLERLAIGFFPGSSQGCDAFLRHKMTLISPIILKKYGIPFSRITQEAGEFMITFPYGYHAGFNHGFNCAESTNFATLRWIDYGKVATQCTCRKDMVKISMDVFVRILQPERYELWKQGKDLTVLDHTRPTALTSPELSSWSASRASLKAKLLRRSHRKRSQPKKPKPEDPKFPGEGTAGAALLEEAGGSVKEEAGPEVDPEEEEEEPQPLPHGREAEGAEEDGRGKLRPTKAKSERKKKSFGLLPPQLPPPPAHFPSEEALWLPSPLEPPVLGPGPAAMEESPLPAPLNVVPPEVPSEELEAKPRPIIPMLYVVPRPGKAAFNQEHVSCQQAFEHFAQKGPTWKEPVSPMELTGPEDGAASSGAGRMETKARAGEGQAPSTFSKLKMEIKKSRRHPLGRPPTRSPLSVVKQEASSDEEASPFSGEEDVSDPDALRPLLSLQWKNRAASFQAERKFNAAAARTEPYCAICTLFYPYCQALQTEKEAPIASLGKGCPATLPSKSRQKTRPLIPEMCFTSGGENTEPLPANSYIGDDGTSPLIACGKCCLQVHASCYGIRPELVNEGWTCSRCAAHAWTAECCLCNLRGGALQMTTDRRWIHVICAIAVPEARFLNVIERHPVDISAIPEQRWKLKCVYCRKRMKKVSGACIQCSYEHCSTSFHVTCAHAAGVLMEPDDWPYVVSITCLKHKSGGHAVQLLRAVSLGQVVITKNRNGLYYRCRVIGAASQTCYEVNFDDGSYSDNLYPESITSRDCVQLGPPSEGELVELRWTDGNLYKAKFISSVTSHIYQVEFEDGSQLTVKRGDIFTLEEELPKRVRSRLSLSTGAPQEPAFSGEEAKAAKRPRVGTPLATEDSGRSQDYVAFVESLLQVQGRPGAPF
# Assays:
# Assay in all cases: cell-based or functional assay
# [1] = molecular target: prolyl hydroxylase domain 2 (UniProt Q9GZT9 1-426)
# Chain of prolyl hydroxylase domain 2 (Q9GZT9 whole entry, the tested form may be a part): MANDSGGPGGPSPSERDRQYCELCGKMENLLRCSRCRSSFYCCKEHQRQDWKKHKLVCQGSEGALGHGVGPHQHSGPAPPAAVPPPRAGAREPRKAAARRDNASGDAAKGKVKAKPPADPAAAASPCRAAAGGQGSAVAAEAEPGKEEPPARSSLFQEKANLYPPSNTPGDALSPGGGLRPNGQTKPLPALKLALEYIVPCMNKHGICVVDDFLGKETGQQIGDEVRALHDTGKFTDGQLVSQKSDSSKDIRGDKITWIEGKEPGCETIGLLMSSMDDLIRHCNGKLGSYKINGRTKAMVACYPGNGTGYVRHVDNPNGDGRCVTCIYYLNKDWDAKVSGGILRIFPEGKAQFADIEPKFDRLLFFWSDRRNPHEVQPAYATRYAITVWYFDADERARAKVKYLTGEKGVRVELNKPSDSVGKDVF
# [2] = molecular target: T1, KDM4C
# [3] = molecular target: KDM5C (human, UniProt P41229 1-1560)
# Chain of KDM5C (P41229 whole entry): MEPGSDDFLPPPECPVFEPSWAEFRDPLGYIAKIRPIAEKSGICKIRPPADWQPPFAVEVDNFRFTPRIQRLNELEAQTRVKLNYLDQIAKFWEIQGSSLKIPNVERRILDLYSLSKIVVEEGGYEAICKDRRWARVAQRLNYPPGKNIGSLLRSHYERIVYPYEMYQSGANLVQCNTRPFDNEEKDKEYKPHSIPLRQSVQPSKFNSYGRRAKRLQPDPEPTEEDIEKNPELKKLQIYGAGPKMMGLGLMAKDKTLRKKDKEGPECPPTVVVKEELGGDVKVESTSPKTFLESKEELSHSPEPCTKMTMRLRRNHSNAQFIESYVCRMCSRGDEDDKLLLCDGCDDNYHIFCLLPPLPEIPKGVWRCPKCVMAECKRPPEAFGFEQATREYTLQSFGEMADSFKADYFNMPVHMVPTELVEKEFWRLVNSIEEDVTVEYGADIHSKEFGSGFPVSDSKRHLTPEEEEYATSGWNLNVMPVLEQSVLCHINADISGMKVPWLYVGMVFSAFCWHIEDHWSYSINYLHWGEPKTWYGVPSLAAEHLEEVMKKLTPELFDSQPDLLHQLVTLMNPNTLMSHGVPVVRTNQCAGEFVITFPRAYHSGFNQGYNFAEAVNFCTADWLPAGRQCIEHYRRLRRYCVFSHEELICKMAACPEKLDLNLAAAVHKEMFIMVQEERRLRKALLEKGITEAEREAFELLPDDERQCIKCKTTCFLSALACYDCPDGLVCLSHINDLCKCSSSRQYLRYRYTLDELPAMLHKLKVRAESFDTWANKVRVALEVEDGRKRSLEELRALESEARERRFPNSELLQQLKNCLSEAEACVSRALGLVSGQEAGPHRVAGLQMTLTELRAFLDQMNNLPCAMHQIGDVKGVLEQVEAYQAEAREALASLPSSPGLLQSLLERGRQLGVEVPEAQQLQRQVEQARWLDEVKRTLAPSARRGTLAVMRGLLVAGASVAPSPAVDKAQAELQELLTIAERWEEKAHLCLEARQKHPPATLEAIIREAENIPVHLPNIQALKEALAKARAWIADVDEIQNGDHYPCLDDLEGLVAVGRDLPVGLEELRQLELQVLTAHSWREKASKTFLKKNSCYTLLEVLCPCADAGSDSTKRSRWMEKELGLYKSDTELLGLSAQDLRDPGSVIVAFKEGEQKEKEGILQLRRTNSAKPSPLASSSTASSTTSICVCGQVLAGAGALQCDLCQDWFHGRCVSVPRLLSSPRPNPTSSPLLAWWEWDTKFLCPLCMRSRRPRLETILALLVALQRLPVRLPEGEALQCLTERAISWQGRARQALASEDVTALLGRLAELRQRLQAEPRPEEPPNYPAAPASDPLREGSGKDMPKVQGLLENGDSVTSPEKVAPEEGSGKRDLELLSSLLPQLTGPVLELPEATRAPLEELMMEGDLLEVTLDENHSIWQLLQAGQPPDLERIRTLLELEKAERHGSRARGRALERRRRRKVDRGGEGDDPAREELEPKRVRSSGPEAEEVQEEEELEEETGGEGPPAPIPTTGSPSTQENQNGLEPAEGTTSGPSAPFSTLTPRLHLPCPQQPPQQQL
# [4] = molecular target: KDM1A (human, UniProt O60341 1-852)
# [5] = molecular target: T2, KDM4B
binder,measurement,setting,value
"YLKSRRSGLTWIPC (not fully specified; N-terminal L-Tyr (^LTyr library, N-chloroacetyl-L-Tyr) cyclised by a thioether to a downstream cysteine) [CP4]",IC50 of inhibition of PHD2 (MALDI–TOF MS assay),[1],> 1000 µM
same,IC50 of inhibition of demethylase activity (AlphaScreen activity assay),[2],0.017 µM
same,IC50 of inhibition of demethylase activity (AlphaScreen activity assay),[3],> 10 µM
same,IC50 of inhibition of KDM1A/LSD1 (fluorescence-based assay),[4],> 10 µM
same,IC50 of inhibition of demethylase activity (AlphaScreen activity assay),[5],0.006 µM
